According to article doi:10.1101/2020.03.09.984104 (bioRxiv, 2020):

B1: NRNNTG (peptide)
peptide: NRNNTG
B2: ANNNMYRR (peptide)
peptide: ANNNMYRR
B3: GFRNNNMYRF (peptide)
peptide: GFRNNNMYRF
B4: NRLLTG (peptide)
peptide: NRLLTG
B5: ALLLMYRR (peptide)
peptide: ALLLMYRR
B6: GFRVVLMYRF (peptide)
peptide: GFRVVLMYRF

target: E. coli Hsp70 (DnaK) (E. coli, UniProt P0A6Y8 1-638); experiment: SPR
Sequence (P0A6Y8 whole entry): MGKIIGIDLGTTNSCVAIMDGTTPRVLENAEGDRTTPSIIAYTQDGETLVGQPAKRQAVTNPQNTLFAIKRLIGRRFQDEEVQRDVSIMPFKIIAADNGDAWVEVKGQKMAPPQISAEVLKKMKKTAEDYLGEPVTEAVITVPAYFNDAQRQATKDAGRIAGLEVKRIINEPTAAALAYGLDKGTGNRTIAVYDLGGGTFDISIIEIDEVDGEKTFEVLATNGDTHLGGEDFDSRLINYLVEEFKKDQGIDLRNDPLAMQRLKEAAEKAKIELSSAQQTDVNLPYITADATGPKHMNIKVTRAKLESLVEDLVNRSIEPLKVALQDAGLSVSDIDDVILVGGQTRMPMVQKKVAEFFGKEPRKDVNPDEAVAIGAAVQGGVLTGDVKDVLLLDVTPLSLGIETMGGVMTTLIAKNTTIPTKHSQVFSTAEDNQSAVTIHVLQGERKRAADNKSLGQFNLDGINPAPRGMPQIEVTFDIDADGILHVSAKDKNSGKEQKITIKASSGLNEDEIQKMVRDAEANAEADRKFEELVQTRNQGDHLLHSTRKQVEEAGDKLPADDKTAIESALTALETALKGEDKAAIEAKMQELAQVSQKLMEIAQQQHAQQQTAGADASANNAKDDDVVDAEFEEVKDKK

Binder	binding result
B1	binds
B2	binds
B3	binds
B4	binds
B5	binds
B6	binds
